According to article PMC2613574:

Assays:
[1] = molecular target: FNfn10 wild-type N fragment displayed on the yeast surface (Aga2p fusion, FLAG tag) (human); assay: flow cytometry on cells
[2] = molecular target: FNfn10 ND7N fragment displayed on the yeast surface (Aga2p fusion, FLAG tag) (human); assay: flow cytometry on cells

Substance	log(B/E ratio) [1]	Kd [2]
FNfn10 C fragment, wild type, co-secreted in yeast (V5 tag) (domain or fragment)	1.3	
ubiquitin fusion of the FNfn10 C fragment with the V5 tag (domain or fragment)		0.0253 µM
